Data as given in US20180044393A1 (INSERM INSTITUT NATIONAL DE LA SANT ET DE LA RECHERCHE M …, published 2018).

Columns and labels:
[1] = target: T1, Orexin receptor-1 (human OX1R, wild type) stably expressed in CHO-S cells (human, UniProt O43613 1-425); assay: cell-based or functional assay
T1 sequence: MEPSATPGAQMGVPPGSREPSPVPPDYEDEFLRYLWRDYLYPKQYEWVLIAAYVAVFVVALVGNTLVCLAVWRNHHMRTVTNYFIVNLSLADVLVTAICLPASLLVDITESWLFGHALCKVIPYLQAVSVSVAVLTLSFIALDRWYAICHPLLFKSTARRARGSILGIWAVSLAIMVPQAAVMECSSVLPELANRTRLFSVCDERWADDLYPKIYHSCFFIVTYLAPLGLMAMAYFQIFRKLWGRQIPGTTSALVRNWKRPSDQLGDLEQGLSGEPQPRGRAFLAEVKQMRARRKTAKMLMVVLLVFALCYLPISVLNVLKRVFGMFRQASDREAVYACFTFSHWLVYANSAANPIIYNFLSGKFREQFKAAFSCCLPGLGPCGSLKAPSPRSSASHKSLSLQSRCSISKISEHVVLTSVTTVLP

[2] = target: T1, Orexin receptor-1 (human OX1R, wild …); assay: competitive inhibition of 125I-OxA binding on CHO-S cells expressing human OX1R
Description: CHO—S cells expressing recombinant native or mutated OX1R were grown as previously described (El Firar et al., 2009) and maintained at 37° C. in a humidified 5% CO₂/air incubator. ¹²⁵I-orexia-A (74 TBq/mmol) was prepared as previously described (El Firar et al., 2009). […] Free peptides were removed by 2 cell washing cycles with PBS. […] Data were analyzed using the GraphPad software (http://www.graphpad.com).

Apoptosis induction EC50 [1]: 2180 nM | IP3 production EC50 [1]: 1510 nM | IC50 [2]: 388 nM
B1: OxB 7-28 (peptide)
peptide: LQGRLQRLLQASGNHAAGILTM
notes: synthetic deletion mutant of OxB; also called deletion of the first six residues of OxB
